B1: CPEB3 Ribozyme (parent)
chain: GGGGGCCACAGCAGAAGCGUUCACGUCGCGGCCCCUGUCAGAUUCUGGUGAAUCUGCGAAUUCUGCUGU

Variants of: B1
Assay: self-cleavage, relative activity (ratio to wild type); higher = more cleavage; co-transcriptional
Work on C39U U64C yielded a self-cleavage of 0.699.
C39U U64G showed a self-cleavage of 0.733.
A40C G65A gave a self-cleavage of 0.387.
With A40C G65C the self-cleavage was 0.332.
In the case of A40G U53G, the self-cleavage is reported as 0.813.
In the case of A40G U53A, the self-cleavage is reported as 0.759.
With A40G U53C the self-cleavage was 0.649.
A40C A59C showed a self-cleavage of 0.346.
A40C A59G showed a self-cleavage of 0.515.
A40C U43C showed a self-cleavage of 0.314.
With A40C U43G the self-cleavage was 0.281.
Work on A40C U43A yielded a self-cleavage of 0.356.
Work on A40G G56A yielded a self-cleavage of 0.949.
For A40G G56U, the self-cleavage was 0.895.
In the case of A40G U64A, the self-cleavage is reported as 0.759.
Work on A40G C66A yielded a self-cleavage of 0.54.
Work on A40G C66U yielded a self-cleavage of 0.982.
With A40G C45U the self-cleavage was 0.933.
A40G C45A showed a self-cleavage of 0.884.
Work on A40C A42G yielded a self-cleavage of 0.482.
Variant A40C A42U has a self-cleavage of 0.363.
A40C A42C gave a self-cleavage of 0.26.
A40U A51G showed a self-cleavage of 0.842.
A40U A51C showed a self-cleavage of 0.564.
A40U A51U gave a self-cleavage of 0.61.
For C39U U49A, the self-cleavage was 0.971.
Work on C39U U49G yielded a self-cleavage of 0.975.
Variant C39U U44A has a self-cleavage of 0.517.
C39U U46G showed a self-cleavage of 0.997.
Variant C39U U46C has a self-cleavage of 0.822.
In the case of A40G G47A, the self-cleavage is reported as 0.987.
With A40G G47U the self-cleavage was 1.02.
A40G U69G gave a self-cleavage of 1.02.
With A40G U69C the self-cleavage was 0.718.
Variant A40G U69A has a self-cleavage of 1.01.
Work on C39U U69C yielded a self-cleavage of 1.04.
Work on A40G G65C yielded a self-cleavage of 0.434.
A40G G65A gave a self-cleavage of 0.756.
Work on A40C G68A yielded a self-cleavage of 0.882.
A40U A60U gave a self-cleavage of 0.41.
A40U A60C showed a self-cleavage of 0.235.
A40G C57G showed a self-cleavage of 0.326.
A40C G48U gave a self-cleavage of 0.884.
With C39U G65A the self-cleavage was 0.56.
With C39U G65U the self-cleavage was 0.498.
A40C A51U gave a self-cleavage of 0.324.
Work on A40C A51G yielded a self-cleavage of 0.494.
Variant A40C G47A has a self-cleavage of 0.791.
With A40C G47U the self-cleavage was 0.905.
With C39U G58U the self-cleavage was 0.961.
In the case of C39U G58C, the self-cleavage is reported as 0.946.
A40C G50U showed a self-cleavage of 0.55.
A40G G48C showed a self-cleavage of 0.98.
A40G G48U showed a self-cleavage of 0.969.
In the case of A40G G48A, the self-cleavage is reported as 1.
With A40C U55C the self-cleavage was 0.515.
With A40C U55A the self-cleavage was 0.697.
A40C U61A showed a self-cleavage of 0.304.
A40C U61G gave a self-cleavage of 0.192.
A40C U61C gave a self-cleavage of 0.339.
With A40C G58U the self-cleavage was 0.727.
For A40C G58C, the self-cleavage was 0.776.
A40U A52G gave a self-cleavage of 0.832.
In the case of A40C C45A, the self-cleavage is reported as 0.534.
A40C C45G gave a self-cleavage of 0.531.
In the case of A40C C45U, the self-cleavage is reported as 0.497.
In the case of A40U C57G, the self-cleavage is reported as 0.366.
For A40C C66G, the self-cleavage was 0.36.
Work on A40C C66U yielded a self-cleavage of 0.443.
A40C C66A showed a self-cleavage of 0.232.
Work on C39U U43C yielded a self-cleavage of 0.687.
For A40G U44G, the self-cleavage was 0.843.
Work on A40G U44C yielded a self-cleavage of 0.485.
Variant A40C G56U has a self-cleavage of 0.401.
Variant A40C G56C has a self-cleavage of 0.341.
For A40C G56A, the self-cleavage was 0.546.
With A40C U62A the self-cleavage was 0.385.
Work on A40C U62C yielded a self-cleavage of 0.255.
A40C U62G gave a self-cleavage of 0.352.
A40G G58C showed a self-cleavage of 0.973.
Work on A40G G58U yielded a self-cleavage of 0.963.
With A40G G58A the self-cleavage was 0.912.
In the case of A40G U46G, the self-cleavage is reported as 0.977.

Reference: the RNAGym collection of RNA variant scans (doi:10.7554/elife.80360)
